Among the data in publication PMC9901739 are stoichiometry N values, retold here.

In general, stoichiometry N refers to the number of molecules, sites or subunits per partner or assembly.

In the experiment the target is acetylesterase LgEstI from Lactococcus garvieae (Lactococcus garvieae). The experiment in a line: SEC; Superdex 200 10/300 GL; 20 mM Tris-HCl pH 8.0, 200 mM NaCl, 1 mM TCEP, 5% glycerol; standard curve from a protein standard mix of 15-600 kDa. Background: SEC sorts molecules by how far they enter the pores of the column.

“acetylesterase LgEstI from Lactococcus garvieae (enzyme)”: the stoichiometry N stood at 2.
